Tests used:
[1] = biological target: RPTPσ (transfected in 293T/17 cells for native PAGE) (not stated (human or mouse cDNA cloned)); experiment: native gel or EMSA; lysates (NP-40 buffer) of RPTPσ-transfected 293T/17 cells in Coomassie blue sample buffer, native PAGE, western blot; cells untreated or treated with CSPG for 30 min
[2] = biological target: RPTPσ FC (full-length RPTPσ fused to FKBP-Cluc) (not stated (human or mouse cDNA cloned) | not stated); experiment: split reporter (BiFC, NanoBiT); split firefly luciferase; 293T/17 cells co-transfected with RPTPσ FN/FC, 48 h, rapamycin for 4 hr against DMSO control

Row | stoichiometry N [1] | fold increase of bioluminescence with rapamycin against control cells [2] | Substance
1 | 2 |  | RPTPσ (transfected in 293T/17 cells for native PAGE) (receptor)
2 |  | 3 fold | RPTPσ FN (full-length RPTPσ fused to FRB-Nluc)

Reference: article PMC5449173
